These results are taken from publication PMC5703946, “Modification and functional adaptation of the MBF1 gene family in the lichenized fungus Endocarpon pusillum under environmental stress” (Scientific Reports, 2017).

This experiment concerns the target T1, His-yTBP (yeast TATA-box-binding protein) (S. cerevisiae, UniProt P13393 1-240).
T1 sequence (looked up): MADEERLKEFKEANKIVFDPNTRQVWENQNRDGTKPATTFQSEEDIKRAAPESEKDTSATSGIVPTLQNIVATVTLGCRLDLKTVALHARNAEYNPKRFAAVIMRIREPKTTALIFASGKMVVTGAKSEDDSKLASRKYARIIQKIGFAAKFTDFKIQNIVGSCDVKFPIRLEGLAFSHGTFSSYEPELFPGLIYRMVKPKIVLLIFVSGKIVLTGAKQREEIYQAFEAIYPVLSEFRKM
Briefly: pull-down; His-yTBP held on Ni-NTA agarose beads (from soluble E. coli lysate, washed three times); equal amounts of purified GST-MBF1 proteins or purified GST incubated with the beads for 4 h at 4 °C; beads washed three times; detected by immunoblot (Wes) with anti-His and anti-GST antibodies. The settings on record: both partners purified. A general note: In western blotting, separated proteins are transferred to a membrane and probed.

B1: GST-yMBF1 (Saccharomyces cerevisiae multiprotein-bridging factor 1) (natural protein, S. cerevisiae, UniProt O14467 1-151, looked up)
chain: MSDWDTNTIIGSRARAGGSGPRANVARSQGQINAARRQGLVVSVDKKYGSTNTRGDNEGQRLTKVDRETDIVKPKKLDPNVGRAISRARTDKKMSQKDLATKINEKPTVVNDYEAARAIPNQQVLSKLERALGVKLRGNNIGSPLGAPKKK
notes: MBF1 of Saccharomyces cerevisiae (amino acids 1 to 151 by the domain limits in the methods); source: E. coli BL21, purified (glutathione agarose beads, eluted)
In the case of B1, the binding result was “binds”.
